# B1: anti-human-B7-H3 human antibody 2#8890 (antibody, human IgG1, kappa, V domains shown)
# VH: QVQLQESGPGLVQPSGTLSLTCAVSGGSDSSTNWWTWVRQSPGQGLEWIGEISPIGFTSYSPSLRSRVTISVDKSKTQFSLKLSSVTAADTAVYYCARDRLYFAFWGQGTLVTVSS
# VL: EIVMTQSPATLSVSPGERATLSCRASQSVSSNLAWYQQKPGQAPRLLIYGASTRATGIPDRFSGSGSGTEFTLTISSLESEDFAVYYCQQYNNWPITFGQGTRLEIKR
# How the values were obtained:
# [1] = target: T1, human B7-H3-4Ig-His protein (human, UniProt Q5ZPR3 29-466); experiment: ELISA, antigen coated at 1 ug/ml (specificity panel)
# T1 construct: extracellular domain; Made in HEK293-EBNA cells
# T1 sequence: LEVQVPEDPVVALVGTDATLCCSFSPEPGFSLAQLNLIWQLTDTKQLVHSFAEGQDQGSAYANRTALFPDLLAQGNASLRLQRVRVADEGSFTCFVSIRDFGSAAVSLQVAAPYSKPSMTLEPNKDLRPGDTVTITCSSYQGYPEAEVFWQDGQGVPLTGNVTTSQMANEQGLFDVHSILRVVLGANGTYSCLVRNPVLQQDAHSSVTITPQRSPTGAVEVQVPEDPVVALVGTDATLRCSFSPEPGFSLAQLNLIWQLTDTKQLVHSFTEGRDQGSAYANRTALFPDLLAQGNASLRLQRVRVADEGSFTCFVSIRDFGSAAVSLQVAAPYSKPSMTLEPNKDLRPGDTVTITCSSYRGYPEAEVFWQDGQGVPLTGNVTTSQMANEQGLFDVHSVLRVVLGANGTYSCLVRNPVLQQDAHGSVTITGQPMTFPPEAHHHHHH
# [2] = target: T2, human B7-H3 on human tumor cells (MCF-7, HT29, NCI-N87, HCC1806, HCC827) (human, UniProt Q5ZPR3 29-534); experiment: flow cytometry on NCI-N87 cells
# T2 construct: whole, on cells
# T2 sequence (looked up): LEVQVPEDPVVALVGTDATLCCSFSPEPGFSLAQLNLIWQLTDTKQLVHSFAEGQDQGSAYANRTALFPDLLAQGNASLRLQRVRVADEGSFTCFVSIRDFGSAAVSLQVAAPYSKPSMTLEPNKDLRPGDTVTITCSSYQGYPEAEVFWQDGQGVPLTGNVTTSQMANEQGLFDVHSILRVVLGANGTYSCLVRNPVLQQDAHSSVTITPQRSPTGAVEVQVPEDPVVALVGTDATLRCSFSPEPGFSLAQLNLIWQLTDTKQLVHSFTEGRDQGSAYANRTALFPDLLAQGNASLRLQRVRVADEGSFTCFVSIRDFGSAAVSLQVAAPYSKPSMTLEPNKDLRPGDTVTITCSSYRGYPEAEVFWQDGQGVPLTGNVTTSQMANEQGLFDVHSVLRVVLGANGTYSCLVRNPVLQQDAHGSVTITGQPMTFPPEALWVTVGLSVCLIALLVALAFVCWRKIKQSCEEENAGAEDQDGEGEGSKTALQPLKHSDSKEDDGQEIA
# [3] = target: T1, human B7-H3-4Ig-His protein; experiment: ELISA, antigen coated at 1 ug/ml
# [4] = target: T3, human B7-H2-his (human, UniProt O75144 19-256, limits assumed); experiment: ELISA, antigen coated at 1 ug/ml
# T3 construct: Bought protein; not shown: his tag
# T3 sequence (looked up): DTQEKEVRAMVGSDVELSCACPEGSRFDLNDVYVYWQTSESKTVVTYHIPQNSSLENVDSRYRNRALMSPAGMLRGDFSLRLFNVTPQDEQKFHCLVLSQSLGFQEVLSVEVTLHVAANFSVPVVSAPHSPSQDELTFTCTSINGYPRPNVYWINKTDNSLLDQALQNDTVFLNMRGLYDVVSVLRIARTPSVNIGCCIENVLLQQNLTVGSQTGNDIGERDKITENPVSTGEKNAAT
# [5] = target: T4, human B7-1-his (human, UniProt P33681 35-242); experiment: ELISA, antigen coated at 1 ug/ml
# T4 construct: Bought protein; not shown: his tag
# T4 sequence (looked up): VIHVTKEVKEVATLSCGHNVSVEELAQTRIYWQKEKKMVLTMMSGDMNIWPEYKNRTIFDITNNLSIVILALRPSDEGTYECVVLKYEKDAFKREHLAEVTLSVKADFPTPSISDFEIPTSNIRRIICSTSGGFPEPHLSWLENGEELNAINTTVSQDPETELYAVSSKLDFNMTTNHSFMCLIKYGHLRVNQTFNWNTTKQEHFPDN
# [6] = target: T5, human B7-2-his (human, UniProt P42081 24-247, limits assumed); experiment: ELISA, antigen coated at 1 ug/ml
# T5 construct: Bought protein; not shown: his tag
# T5 sequence (looked up): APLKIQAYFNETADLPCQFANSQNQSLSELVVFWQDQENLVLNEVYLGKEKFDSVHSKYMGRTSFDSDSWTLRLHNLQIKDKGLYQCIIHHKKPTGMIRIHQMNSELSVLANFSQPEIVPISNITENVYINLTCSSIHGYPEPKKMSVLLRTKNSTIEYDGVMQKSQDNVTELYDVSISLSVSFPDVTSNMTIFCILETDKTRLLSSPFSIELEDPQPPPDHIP
# [7] = target: T2, human B7-H3 on human tumor cells …; experiment: flow cytometry on HCC1806 cells
# [8] = target: T6, rat B7-H3 on CHO-S cells (CHO-S-rat B7-H3) (rat, UniProt Q7TPB4 29-316); experiment: flow cytometry on CHO-S-rat B7-H3 cells
# T6 construct: whole, on cells; also called rat B7-H3-overexpressed cells
# T6 sequence (looked up): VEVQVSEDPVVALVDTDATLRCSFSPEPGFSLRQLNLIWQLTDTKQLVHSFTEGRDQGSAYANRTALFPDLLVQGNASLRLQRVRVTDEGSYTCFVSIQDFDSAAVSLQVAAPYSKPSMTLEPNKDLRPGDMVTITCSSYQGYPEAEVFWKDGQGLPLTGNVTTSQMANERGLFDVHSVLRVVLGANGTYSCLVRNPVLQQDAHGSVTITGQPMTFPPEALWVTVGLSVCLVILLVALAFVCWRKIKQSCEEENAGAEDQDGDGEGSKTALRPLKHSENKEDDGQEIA
# [9] = target: T7, human B7-H3-4Ig on CHO-S cells (CHO-S-human B7-H3-4Ig) (human, UniProt Q5ZPR3 29-534); experiment: flow cytometry on CHO-S-human B7-H3-4Ig cells
# T7 construct: whole, on cells; also called CHO-S-B7-H3-4Ig
# T7 sequence (looked up): T2 sequence (looked up)
# [10] = target: T8, rat B7-H3-2Ig-His protein (rat, UniProt Q7TPB4 29-248); experiment: BLI (ForteBio), antibody captured on Protein A sensor, antigen in solution
# T8 construct: extracellular domain; also called rat B7-H3-his
# T8 sequence: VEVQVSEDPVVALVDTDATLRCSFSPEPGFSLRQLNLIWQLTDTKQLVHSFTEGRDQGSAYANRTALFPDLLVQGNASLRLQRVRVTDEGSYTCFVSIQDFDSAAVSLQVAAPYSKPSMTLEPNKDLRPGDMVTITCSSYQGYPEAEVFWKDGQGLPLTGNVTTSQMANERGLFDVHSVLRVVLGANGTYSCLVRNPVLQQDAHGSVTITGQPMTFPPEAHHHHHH
binder,measurement,setting,value
B1,EC50,[1],1.93 ng/mL
same,EC50,[2],5.77 ng/mL
same,EC50,[3],1.93 ng/mL
same,binding result,[4],no binding (tested: 10 ug/ml highest concentration)
same,binding result,[5],no binding (tested: 10 ug/ml highest concentration)
same,binding result,[6],no binding (tested: 10 ug/ml highest concentration)
same,EC50,[7],9.67 ng/mL
same,binding result,[8],no binding (tested: 10 ug/ml highest concentration)
same,EC50,[9],0.115 µg/mL
same,binding result,[10],no binding (tested: 200 nM highest concentration)
